# Experimental data: patent US20210087522
# B1: APPT, Sfp-like phosphopantetheinyl transferase (PPTase) from Anabaena sp. PCC7120 (protein)
# chain: MLQHTWLPKPPNLTLLSDEVHLWRIPLDQPESQLQDLAATLSSDELARANRFYFPEHRRRFTAGRGILRSILGGYLGVEPGQVKFDYESRGKPILGDRFAESGLLFNLSHSQNLALCAVNYTRQIGIDLEYLRPTSDLESLAKRFFLPREYELLRSLPDEQKQKIFFRYWTCKEAYLKATGDGIAKLEEIEIALTPTEPAKLQTAPAWSLLELVPDDNCVAAVAVAGFGWQPKFWHY
# B2: MPPT, Sfp-like phosphopantetheinyl transferase (PPTase) from Microcystis aeruginosa NIES843 (protein)
# chain: MFISTDEVHLYFISLDPSGDRLETLASLLSEDEIIRANRYHFPEHKRRFLVARGCLREILGSYLAISPEKIEFIYSERGKPSINYQLQFNLSHSEEMAICGLTLTARIGVDLEKMRQMKDLDSLTKRFFCAREHELVEKSAEKEKLFFQLWTAKEAYLKAVGTGISGGLDRVEVGLNPLKLDNVAGEWQLWTAAIGDNYRATVVIEGSDRVIKTFGLSDL
# Experiments:
# [1] = target: T1, FNPCP, CP of an uncharacterized NRP gene cluster from Fischerella
# T1 chain: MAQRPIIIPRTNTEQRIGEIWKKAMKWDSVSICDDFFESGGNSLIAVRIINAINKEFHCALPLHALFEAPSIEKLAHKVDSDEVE
# [2] = target: T2, SsPCP, PCP of a thaxtomin cluster from Streptomyces scabiei 87.22
# T2 chain: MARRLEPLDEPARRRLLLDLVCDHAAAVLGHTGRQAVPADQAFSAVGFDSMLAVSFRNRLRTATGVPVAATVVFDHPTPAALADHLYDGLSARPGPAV
# [3] = target: T3, FisPCP, PCP of the shinorine gene cluster from Fischerella
# T3 chain: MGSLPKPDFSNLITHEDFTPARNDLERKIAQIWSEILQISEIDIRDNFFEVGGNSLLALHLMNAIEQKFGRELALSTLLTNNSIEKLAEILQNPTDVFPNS
# [4] = target: T4, MACP, CP of an uncharacterized NRP/PK gene cluster from M. aeruginosa NIES843
# T4 chain: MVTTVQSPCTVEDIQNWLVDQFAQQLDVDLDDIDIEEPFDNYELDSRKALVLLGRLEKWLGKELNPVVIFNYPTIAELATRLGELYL
# [5] = target: T5, APACP, ACP of the glycolipid PKS in Anabaena
# T5 chain: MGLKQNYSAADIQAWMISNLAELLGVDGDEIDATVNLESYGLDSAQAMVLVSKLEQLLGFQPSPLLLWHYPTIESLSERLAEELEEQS
# [6] = target: AprACP, ACP of the apratoxin (PK/NRP) gene cluster in Lyngbya sp.
# [7] = target: T6, SFACP, ACP of the FAS from Synechocystis
# T6 chain: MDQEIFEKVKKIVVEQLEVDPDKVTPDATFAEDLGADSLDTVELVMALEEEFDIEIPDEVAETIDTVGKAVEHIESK
# [8] = target: T7, AFACP, ACP of the FAS from Anabaena
# T7 chain: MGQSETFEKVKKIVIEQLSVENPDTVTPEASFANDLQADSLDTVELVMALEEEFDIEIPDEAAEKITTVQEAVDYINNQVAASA
# [9] = target: T8, FNsACP, homolog of ArCPNp from Fischerella
# T8 chain: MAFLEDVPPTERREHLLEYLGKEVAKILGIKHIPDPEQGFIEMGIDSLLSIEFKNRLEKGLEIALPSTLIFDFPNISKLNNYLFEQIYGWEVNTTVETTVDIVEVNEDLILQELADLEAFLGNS
# [10] = target: ScACP, ACP of a putative concanamycin gene cluster from Streptomyces coelicolor A(3)2
# [11] = target: T9, APNPCP, CP of an uncharacterized NRP/PK gene cluster from Anabaena
# T9 chain: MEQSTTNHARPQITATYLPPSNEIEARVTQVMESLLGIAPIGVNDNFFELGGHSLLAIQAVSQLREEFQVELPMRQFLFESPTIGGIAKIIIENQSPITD
protein,measurement,setting,value
B1,Km,[1],12.1 µM
same,kcat,[1],0.203 s⁻¹
same,kcat/Km,[1],16700 M⁻¹ s⁻¹
same,"phosphopantetheinylation of CP (apo to holo), LC-MS",[1],"APPT, AvPPT, MPPT and Sfp functionalized all substrates"
same,Km,[2],7.4 µM
same,kcat,[2],0.127 s⁻¹
same,kcat/Km,[2],16700 M⁻¹ s⁻¹
same,"phosphopantetheinylation of CP (apo to holo), LC-MS",[2],"APPT, AvPPT, MPPT and Sfp functionalized all substrates"
same,Km,[3],7.1 µM
same,kcat,[3],0.0383 s⁻¹
same,kcat/Km,[3],5000 M⁻¹ s⁻¹
same,"phosphopantetheinylation of CP (apo to holo), LC-MS",[3],"APPT, AvPPT, MPPT and Sfp functionalized all substrates"
same,Km,[4],7.9 µM
same,kcat,[4],0.0617 s⁻¹
same,kcat/Km,[4],8330 M⁻¹ s⁻¹
same,"phosphopantetheinylation of CP (apo to holo), LC-MS",[4],"APPT, AvPPT, MPPT and Sfp functionalized all substrates"
same,Km,[5],10 µM
same,kcat,[5],0.283 s⁻¹
same,kcat/Km,[5],26700 M⁻¹ s⁻¹
same,"phosphopantetheinylation of CP (apo to holo), LC-MS",[5],"APPT, AvPPT, MPPT and Sfp functionalized all substrates"
same,Km,[6],7.8 µM
same,kcat,[6],0.238 s⁻¹
same,kcat/Km,[6],30000 M⁻¹ s⁻¹
same,"phosphopantetheinylation of CP (apo to holo), LC-MS",[6],"APPT, AvPPT, MPPT and Sfp functionalized all substrates"
same,Km,[7],2.8 µM
same,kcat,[7],0.0267 s⁻¹
same,kcat/Km,[7],10000 M⁻¹ s⁻¹
same,"phosphopantetheinylation of CP (apo to holo), LC-MS",[7],"APPT, AvPPT, MPPT and Sfp functionalized all substrates"
same,Km,[8],6.8 µM
same,kcat,[8],0.195 s⁻¹
same,kcat/Km,[8],28300 M⁻¹ s⁻¹
same,"phosphopantetheinylation of CP (apo to holo), LC-MS",[8],"APPT, AvPPT, MPPT and Sfp functionalized all substrates"
same,Km,[9],8.4 µM
same,kcat,[9],0.0367 s⁻¹
same,kcat/Km,[9],5000 M⁻¹ s⁻¹
same,"phosphopantetheinylation of CP (apo to holo), LC-MS",[9],"APPT, AvPPT, MPPT and Sfp functionalized all substrates"
same,Km,[10],14.1 µM
same,kcat,[10],0.09 s⁻¹
same,kcat/Km,[10],6670 M⁻¹ s⁻¹
same,"phosphopantetheinylation of CP (apo to holo), LC-MS",[10],"APPT, AvPPT, MPPT and Sfp functionalized all substrates"
same,Km,[11],1.6 µM
same,kcat,[11],0.0167 s⁻¹
same,kcat/Km,[11],10000 M⁻¹ s⁻¹
same,"phosphopantetheinylation of CP (apo to holo), LC-MS",[11],"APPT, AvPPT, MPPT and Sfp functionalized all substrates"
B2,Km,[1],7.2 µM
same,kcat,[1],0.16 s⁻¹
same,kcat/Km,[1],21700 M⁻¹ s⁻¹
same,"phosphopantetheinylation of CP (apo to holo), LC-MS",[1],"APPT, AvPPT, MPPT and Sfp functionalized all substrates"
same,relative activity (most active PPTase = 100%),[1],MPPT showed >84% relative activity toward all nine cyanobacterial CPs
same,Km,[2],9.1 µM
same,kcat,[2],0.118 s⁻¹
same,kcat/Km,[2],11700 M⁻¹ s⁻¹
same,"phosphopantetheinylation of CP (apo to holo), LC-MS",[2],"APPT, AvPPT, MPPT and Sfp functionalized all substrates"
same,relative activity (most active PPTase = 100%),[2],This enzyme also displayed a modest relative activity toward ScACP and SsPCP
same,Km,[3],7.2 µM
same,kcat,[3],0.0317 s⁻¹
same,kcat/Km,[3],5000 M⁻¹ s⁻¹
same,"phosphopantetheinylation of CP (apo to holo), LC-MS",[3],"APPT, AvPPT, MPPT and Sfp functionalized all substrates"
same,relative activity (most active PPTase = 100%),[3],MPPT showed >84% relative activity toward all nine cyanobacterial CPs
same,Km,[4],4.9 µM
same,kcat,[4],0.07 s⁻¹
same,kcat/Km,[4],15000 M⁻¹ s⁻¹
same,"phosphopantetheinylation of CP (apo to holo), LC-MS",[4],"APPT, AvPPT, MPPT and Sfp functionalized all substrates"
same,relative activity (most active PPTase = 100%),[4],MPPT showed >84% relative activity toward all nine cyanobacterial CPs including the highest activity on MACP
same,Km,[5],23.1 µM
same,kcat,[5],0.353 s⁻¹
same,kcat/Km,[5],15000 M⁻¹ s⁻¹
same,"phosphopantetheinylation of CP (apo to holo), LC-MS",[5],"APPT, AvPPT, MPPT and Sfp functionalized all substrates"
same,relative activity (most active PPTase = 100%),[5],MPPT showed >84% relative activity toward all nine cyanobacterial CPs
same,Km,[6],9.1 µM
same,kcat,[6],0.173 s⁻¹
same,kcat/Km,[6],18300 M⁻¹ s⁻¹
same,"phosphopantetheinylation of CP (apo to holo), LC-MS",[6],"APPT, AvPPT, MPPT and Sfp functionalized all substrates"
same,relative activity (most active PPTase = 100%),[6],MPPT showed >84% relative activity toward all nine cyanobacterial CPs
same,Km,[7],3.2 µM
same,growth of Synechocystis mutant with the SPPT gene replaced,[7],demonstrated their in vivo function as activating SFACP for the synthesis of essential fatty acids
same,kcat,[7],0.02 s⁻¹
same,kcat/Km,[7],6670 M⁻¹ s⁻¹
same,"phosphopantetheinylation of CP (apo to holo), LC-MS",[7],"APPT, AvPPT, MPPT and Sfp functionalized all substrates"
same,relative activity (most active PPTase = 100%),[7],MPPT showed >84% relative activity toward all nine cyanobacterial CPs
same,Km,[8],6.9 µM
same,kcat,[8],0.14 s⁻¹
same,kcat/Km,[8],20000 M⁻¹ s⁻¹
same,"phosphopantetheinylation of CP (apo to holo), LC-MS",[8],"APPT, AvPPT, MPPT and Sfp functionalized all substrates"
same,relative activity (most active PPTase = 100%),[8],MPPT showed >84% relative activity toward all nine cyanobacterial CPs
same,Km,[9],8.3 µM
same,kcat,[9],0.035 s⁻¹
same,kcat/Km,[9],5000 M⁻¹ s⁻¹
same,"phosphopantetheinylation of CP (apo to holo), LC-MS",[9],"APPT, AvPPT, MPPT and Sfp functionalized all substrates"
same,relative activity (most active PPTase = 100%),[9],MPPT showed >84% relative activity toward all nine cyanobacterial CPs
same,Km,[10],12.4 µM
same,kcat,[10],0.0433 s⁻¹
same,kcat/Km,[10],3330 M⁻¹ s⁻¹
same,"phosphopantetheinylation of CP (apo to holo), LC-MS",[10],"APPT, AvPPT, MPPT and Sfp functionalized all substrates"
same,relative activity (most active PPTase = 100%),[10],This enzyme also displayed a modest relative activity toward ScACP and SsPCP
same,Km,[11],9.5 µM
same,kcat,[11],0.0317 s⁻¹
same,kcat/Km,[11],3330 M⁻¹ s⁻¹
same,"phosphopantetheinylation of CP (apo to holo), LC-MS",[11],"APPT, AvPPT, MPPT and Sfp functionalized all substrates"
same,relative activity (most active PPTase = 100%),[11],MPPT showed >84% relative activity toward all nine cyanobacterial CPs
